{"source": "patent US10864285B2", "about": "“Methods for the diagnosis and treatment of Sjögren's syndrome” (The U.S.A., as represented by the Secretary, Department of …, priority 2012, dated 2020)", "key": {"[1]": {"test_system": "salivary and lacrimal glands of mice", "assay": "Histopathological scoring for lymphocytic infiltrates (focus score)", "format": "in vivo, mouse", "settings": "20 weeks post cannulation, vs control mice, statistically significant", "description": "Submandibular glands (SMG) were removed for histological analysis from mice at the time of sacrifice, and placed O/N in 10% formalin. After fixation, the tissues were dehydrated in an ethanol series and embedded in paraffin according standard techniques. Sections were cut at 5 μm and subsequently stained with hematoxylin and eosin (H&E). Histopathological scoring was performed using the focus score. A focus is an aggregate of 50 or more mononuclear cells per 4 mm^2. Foci were counted through the whole section, in a total of three sections (50 μm between sections) per SG using a 40× magnification. The results were calculated and expressed as foci per 4 mm^2. The focus scores were assessed blindly by two different examiners and the mean scores were determined.\nA hallmark of pSS is lymphocytic infiltration in the […] glands, especially salivary and lacrimal glands. To determine the effect of elevated BMP6 on the local immune environment of the salivary gland, histopathological scoring for lymphocytic infiltrates was performed on both salivary and lacrimal glands 20 weeks post cannulation. […] Furthermore, no changes in circulating autoantibodies to anti-Ro/SSA or anti-La/SSB were detected in the animals expressing BMP6 in the salivary glands compared with control mice (FIGS. 5C and 5D)."}, "SMG ducts of mice": {"test_system": "SMG ducts of mice", "assay": "Electrical potential across the duct of the SMG", "format": "in vivo, mouse", "settings": "mice transduced with 10^11 particles of AAV5 expressing BMP6, vs GFP control mice", "text": "To measure the electrical potential (EP) across the duct of the SMGs, a procedure was developed to measure the EP by cannulating the duct and inserting the electrode in the cannula. The high impedance electrode was attached to an electrometer (model FD223, World Precision Instrument, Sarasota, Fla.). The electrical potential of the duct was read by placing the ground electronic rode on the adjacent tissues to the opening of the ducts.\nTo measure electrophysiologic parameters associated with Sjögren's syndrome, a measurement circuit 20 (see FIG. 10) was established between a detection electrode 22 placed in a salivary gland duct and a reference electrode 24 placed in electrical contact with adjacent oral mucosa. In this particular example, the electrical potential was measured across the ducts of SMGs. A procedure was developed to measure TEER by cannulating the electrode of a transmeter (model FD223, World Precision Instrument, Sarasota, Fla.) in the ducts of SMGs of mice (FIG. 10). […]\nThe detecting electrode included a cannula 26 placed on a 1 mL syringe 28, which was a fixed supporter. […] The trans-epithelial potential was read by placing the ground electrode on the tissues adjacent to the opening of the ducts. Background potential was determined by reading the potential when the detecting electronic rode was placed in saline only."}, "[2]": {"test_system": "HSG cells (a human salivary gland cell line)", "assay": "Regulated volume decrease (RVD) after hypotonic solution in HSG cells", "format": "cell-based", "settings": "6 ng/ml of BMP6 for 4 days", "description": "Regulated volume decrease was measured as described previously (Liu et al., J Biol Chem 281:15485-15495, 2006). Briefly SMGs from mice were removed at the end of the study and prepared as described (Liu et al., J Biol Chem 281:15485-15495, 2006). Cells were then loaded with the fluoroprobe calcein (Molecular Probes, Inc., Eugene, Oreg.) and excited at 490 nm. Emitted fluorescence was measured at 510 nm. In situ calibration of the dye was performed. Origin 7.5 (OriginLab, Northampton, Mass.) was used for data analysis and display. Significant difference between individual groups was tested by using analysis of variance.\nAlthough no increase in a number of immunological factors was detected, it is not possible to rule out the possibility that BMP6 expression is a trigger for expression of another soluble factor and is not directly causing the loss of RVD in isolated salivary gland cells from the treated mice. To test for a direct effect of BMP6 on RVD, HSG cells (a human salivary gland cell line) were treated with 6 ng/ml of BMP6 for 4 days and then assayed for a loss in RVD activity (FIG. 8B). […] To date little is known about the role of BMPs in SS and the present work represents the first association."}, "Caco-2 cells": {"test_system": "Caco-2 cells", "assay": "Trans epithelial resistance (TEER) of cell monolayers in transwells", "format": "cell-based", "settings": "Caco-2 cells grown in 6 ng/ml BMP6 vs without BMP6", "description": "(§1) Trans epithelial electrical resistance (TER) of all cell types was measured using a using a volt/ohm meter (Millicel; Millipore, Mass., USA) in an electrode chamber (EVOV; WPI, FL, USA). Cells were allowed to establish monolayers on 0.4-Am pore size polycarbonate filters in 6-mm Transwell chambers (Costar, Mass., USA).\n(§2) Tight junction structures are important in the correct functioning of the salivary glands. […] To determine if BMP6 expression could alter epithelial integrity, monolayers of three well differentiated epithelia (SMEI, Caco-2, and MDCK1 cells) grown in the presence of 6 ng/ml BMP6 in transwells were tested for changes in trans epithelial resistance (TEER) compared with cells grown without BMP6 (FIG. 7A). […] BMP6 expression also changed the electrical potential of the glands as well (FIG. 7A)."}, "SMEI cells": {"test_system": "SMEI cells", "assay": "Trans epithelial resistance (TEER) of cell monolayers in transwells", "format": "cell-based", "settings": "SMEI cells grown in 6 ng/ml BMP6 vs without BMP6", "description": "as §1, §2"}, "MDCK1 cells": {"test_system": "MDCK1 cells", "assay": "Trans epithelial resistance (TEER) of cell monolayers in transwells", "format": "cell-based", "settings": "MDCK1 cells grown in 6 ng/ml BMP6 vs without BMP6", "description": "as §1, §2"}}, "data": [{"molecule": "BMP6: A member of the TGF-β superfamily of growth factors; added to cultured cells at 6 ng/ml (protein, UniProt P22004 375-513, looked up) Bone morphogenetic protein 6: SASSRRRQQSRNRSTQSQDVARVSSASDYNSSELKTACRKHELYVSFQDLGWQDWIIAPKGYAANYCDGECSFPLNAHMNATNHAIVQTLVHLMNPEYVPKPCCAPTKLNAISVLYFDDNSNVILKKYRNMVVRACGCH", "values": [{"measurement": "Increase in focus score in the salivary glands", "setting": "[1]", "value": "> 2", "unit": "fold"}, {"measurement": "Electrical potential in intact salivary glands", "setting": "SMG ducts of mice", "value": "increase in electrical potential"}, {"measurement": "RVD activity of HSG cells", "setting": "[2]", "value": "loss of volume decrease was detected"}, {"measurement": "Change in TEER", "setting": "Caco-2 cells", "value": "statistically significant increase in TEER"}, {"measurement": "Change in TEER", "setting": "SMEI cells", "value": "statistically significant increase in TEER"}, {"measurement": "Change in TEER", "setting": "MDCK1 cells", "value": "statistically significant increase in TEER"}]}]}
